Data from doi:10.1101/2021.03.22.436490.

Columns and labels:
[1] = molecular target: Vibrio cholerae Chromosome 2 ParA (ParA2vc) (Vibrio cholerae); experiment: negative-stain EM
[2] = molecular target: Vibrio cholerae Chromosome 2 ParA (ParA2vc) (Vibrio cholerae); experiment: crystal structure
[3] = molecular target: Vibrio cholerae Chromosome 2 ParA (ParA2vc) (Vibrio cholerae); experiment: crystal structure; remark: listed apart in the source

Measured: stoichiometry N

Vibrio cholerae Chromosome 2 ParA (ParA2vc) (natural protein)
2: [1] | [2] | [3]
